From patent US20260028422A1 (CONCEPT TO MEDICINE BIOTECH, published 2026)
Where a chain is given by its changes, count along the chain named. Read-outs that look alike come from different tables or passages of the source.

T1: human MerTK-his protein (human, UniProt Q12866 21-505)
T1 construct: extracellular domain; also called hMerTK-His; human MerTK protein
T1 sequence (looked up): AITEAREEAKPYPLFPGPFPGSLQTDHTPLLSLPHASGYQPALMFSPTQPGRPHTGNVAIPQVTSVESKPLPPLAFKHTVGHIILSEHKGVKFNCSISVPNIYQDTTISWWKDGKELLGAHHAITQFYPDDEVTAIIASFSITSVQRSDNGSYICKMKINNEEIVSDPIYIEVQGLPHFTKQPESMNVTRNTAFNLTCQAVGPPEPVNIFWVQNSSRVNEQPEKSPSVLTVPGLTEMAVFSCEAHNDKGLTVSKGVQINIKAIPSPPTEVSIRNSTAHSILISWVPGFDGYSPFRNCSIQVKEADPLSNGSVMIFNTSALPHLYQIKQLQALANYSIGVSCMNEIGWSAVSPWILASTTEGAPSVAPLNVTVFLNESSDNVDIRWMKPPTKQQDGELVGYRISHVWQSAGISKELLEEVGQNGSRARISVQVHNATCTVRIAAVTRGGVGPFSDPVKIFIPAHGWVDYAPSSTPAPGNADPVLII

T2: human MerTK expressed on cells (human, UniProt Q12866 21-999)
T2 construct: whole, on cells; also called CHO-K1-hMerTK; CHO-K1-MerTK
T2 sequence (looked up): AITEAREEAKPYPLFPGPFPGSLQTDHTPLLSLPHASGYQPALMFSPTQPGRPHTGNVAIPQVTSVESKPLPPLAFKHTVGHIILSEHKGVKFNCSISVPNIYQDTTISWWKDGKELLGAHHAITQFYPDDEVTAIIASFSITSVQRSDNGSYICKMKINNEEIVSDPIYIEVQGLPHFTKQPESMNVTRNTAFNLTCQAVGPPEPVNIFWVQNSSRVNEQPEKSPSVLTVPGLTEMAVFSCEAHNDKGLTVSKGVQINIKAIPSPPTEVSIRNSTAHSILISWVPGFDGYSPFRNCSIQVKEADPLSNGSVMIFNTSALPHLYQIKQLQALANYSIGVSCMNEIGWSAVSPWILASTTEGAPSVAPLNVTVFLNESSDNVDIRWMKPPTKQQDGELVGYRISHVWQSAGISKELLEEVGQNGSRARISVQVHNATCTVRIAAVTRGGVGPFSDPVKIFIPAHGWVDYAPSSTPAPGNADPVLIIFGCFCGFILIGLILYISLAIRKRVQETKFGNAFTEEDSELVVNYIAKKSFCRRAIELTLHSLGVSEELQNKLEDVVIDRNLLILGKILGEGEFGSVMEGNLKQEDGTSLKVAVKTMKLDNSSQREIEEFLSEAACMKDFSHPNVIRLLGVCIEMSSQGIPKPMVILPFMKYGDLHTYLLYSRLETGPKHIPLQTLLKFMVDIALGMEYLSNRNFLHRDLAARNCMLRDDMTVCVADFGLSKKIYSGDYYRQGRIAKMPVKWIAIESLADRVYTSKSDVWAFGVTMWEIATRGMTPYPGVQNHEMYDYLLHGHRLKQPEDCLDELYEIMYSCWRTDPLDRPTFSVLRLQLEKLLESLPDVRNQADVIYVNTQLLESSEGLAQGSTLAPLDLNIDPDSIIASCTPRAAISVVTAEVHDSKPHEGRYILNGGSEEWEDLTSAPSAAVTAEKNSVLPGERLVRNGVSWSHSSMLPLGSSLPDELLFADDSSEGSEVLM

B1: 254B4D9 chimeric monoclonal antibody (antibody, V domains shown)
VH: QIQLVQSGPELKKPGETVKISCKASGYTFTAYGMSWVKQAPGKGLQWMGWINTYSGVPTYTDDFKGRFAFSLEASASTAFLQINNLKNEDTSTYFCARRAAVVAKYWYFDVWGTGTTVTVSS
VL: DIQMTQSPSSLFASLGGKVIITCKSSQDINKRISWYQHKPGKGPRLLIHSTSSLQPGIPLRFSGSGSGRDYSFSISNLEPEDIATYFCLQYDNLLTFGAGTKLELK
B2: 276C2D1 chimeric monoclonal antibody (antibody, V domains shown)
VH: QVQLQQSGPELVKPGASVKLSCKASGYTFTSYDINWVKQRPGLGLEWIGWIYPRDGYTKYNEKFKGKATLAVDTSSSTAYMELHSLTSEDSAVYFCARGYYSNLYYFDYWGQGTTLTVSS
VL: EVVLTQSPPTMAASPGEKITITCSASSSISSNYLHWYQQKPGFSPKLLIYRTSNLASGVPARFSGSGSGTSYSLTIGTMEAEDVATYYCQQGRSIPLTFGAGTKLELK
B3: 280C6A3 chimeric monoclonal antibody (antibody, V domains shown)
VH: B2 VH with T28S, S31T, L43Q, Y57S, A71T, V72L, S77N, E82G, S102D
VL: B2 VL with V2I, P9T, I29V, S94I, I95V
B4: 265F11B5 chimeric monoclonal antibody (antibody, V domains shown)
VH: B2 VH with K19R, S31T, K67R, A97T, S102D
VL: B2 VL with V2I, P9T, M11V, S28I, L34F, K40R, I95V
B5: 293C2B7 chimeric monoclonal antibody (antibody, V domains shown)
VH: B2 VH with L43Q, N61K, A71T, Y100F
VL: B2 VL with V2I, P9T, A13T, A61D
B6: 300A5A3 chimeric monoclonal antibody (antibody, V domains shown)
VH: B2 VH with S31T, Y80S, S102D, Y109N, Q112P
VL: B2 VL with V2N, P9T, M11V, S28I, V84A, I95V
B7: 252H9D5 chimeric monoclonal antibody (antibody, V domains shown)
VH: QVTLRESGPGILQPSQTLSLTCSFSGFSLNTFGMGVGWIRQSSGKGLKWLAHIWWDDDKFYNPALKSRLTISKDTSKNQVFLKIANVDTTDTATYYCARIEGGLPYYYDYWGQGTPLIVSS
VL: DIVMTQSQKIMSTSVGDRISVTCKASQIVGTNVVWYQQKPGQSPKALIYSTSYRYSGVPDRFTGSRSGTDFTLTISNVQSEDLANYFCQQYNSYPFTFGSGTKLEIK
B8: 216G3D6 chimeric monoclonal antibody (antibody, V domains shown)
VH: QVTLKESGPGILQPSQTLSLTCSFSGFSLSTSGMGVGWIRQPSGKGLEWLAHIWWDDDKHCNPALKSRLTISKDTSSNQVFLKIASLDTADTATYYCTQMTMTREFAYWGQGTLVTVSA
VL: DIQMTQTISSLSASLGDRVTISCSAGQGISNYLNWYQQKPDGTVKLLIYYTSRLHSGVPSRFSGSGSGTDFSLTISNLEPEDIATYFCQQYSKFPYTFGGGTKLEIK
B9: 10F7D9 chimeric monoclonal antibody (antibody, V domains shown)
VH: QIQLVQSGPELKKPGETVKISCKASGYTFTNYGMNWVKQAPGKGLKWMGWINTYTGEPTYADDFKGRFAFSLETSASTAYLQINNLKNEDLATYFCATYGHYAWFAYWGQGTLVTVSA
VL: QIVLSQSPAILSASPGEKVTMTCRASSSVSYMHWYQQKSGSSPKPWIYATSNLASGVPARFSGSGSGTSYSLTISRVEAEDAATYFCQQWGTKPLTFGAGTKLELK
B10: 85H8D5 chimeric monoclonal antibody (antibody, V domains shown)
VH: QIQLVQSGPELKKPGETVKISCMASGYTFTTHGVTWVKQAPGQGLQRMGWINTYSGVPTYADDFKGRFVFSLETSANTAHLQINNLKNEDTATYFCARTNNYRYFDVWGTGTTVTVSS
VL: B9 VL with A13S, S39P, S71F, F86Y, G91N, K93D, L95P, A99G, L105I
B11: 247E5A8 chimeric monoclonal antibody (antibody, V domains shown)
VH: DVQLQESGPGLVKPSQSLSLTCSVTGYSITGGYYWTWIRQFPGNKLEWMGYISYDGDNNYNPSLKNRISITRDTSKNQFFLNLNSVTTEDTATYYCAREGGRLRTMDYWGQGTSVTVSS
VL: QIVLTQSPAIMSASPGEKVTITCRASSSVNYMHWFQQKPGTSPKLWIYTTSNLASGVPARFSGSGSGTSYSLTISRMEAEDAATYYCQQRSSYPFTFGSGTKLEIK
B12: h13B4.v16 benchmark antibody (antibody, V domains shown)
VH: EVQLVESGEGLVQPGGSLRLSCAASGFSLSSYAMGWVRQAPGKGLEYVGIINSYGNTYYANWAKGRFTISRDNSKNTVYLQMGSLRAEDMAVYYCARDPGVSSNLWGRGTLVTVSS
VL: DIQMTQSPSTLSASVGDRVTITCQASQNIYSGLAWYQQKPGKAPKLLIYGASKLASGVPSRFSGSGSGTEFTLTISSLQPDDFATYYCQATYYSSNSVAFGGGTKVEIK
B13: 252C12B10 chimeric monoclonal antibody (antibody, V domains shown)
VH: QVQLQQPGTELVKPGASVKLSCKTSGYTFTSYWMHWMKQRPGQGLEWLGHINPSTGGSNYNEKFKSKATLTVDKSSNTAYMQLSSLTSEDSAVYYCARPRGFYGYSYWYFDVWGSGTTVTVSS
VL: DIQMTQTTSSLSASLGDRVTISCSASQDINNYLNWYQHKPDGTIKVLIYFTSSLHSGVPSRFSGSGSGTEYSLTISNLEPEDIATYYCQQYSKLPPTFGSGTKLEIK

Tests used:
human MerTK-his protein [1] = target: T1, human MerTK-his protein; test: SPR Biacore 8K, antibody captured on Protein A chip, 50 nM antigen
Method: To explore whether the humanized antibodies could maintain their binding kinetics, affinity ranking were performed with Biacore™. The antibodies were captured with a Protein A chips. Human MerTK-his protein at 50 nM was injected over captured antibodies for 180 s at a flow rate of 30 μL/min. The antigen was allowed to dissociate for 600 s. The experiment was carried out on a Biacore™ 8K. Data analysis was carried out using Biacore™ 8K evaluation software.

human MerTK-his protein [2] = target: T1, human MerTK-his protein; test: ELISA, plate coated with human MerTK-his, OD 450nm
Method: (§1) To evaluate the binding activity, the chimeric mAbs were subjected to ELISA test. Briefly, 96-well plates were coated with human or cyno MerTK-his protein at 2 μg/mL in PBS, 100 μL/well at 4° C. overnight, then blocked with 150 μL/well of 1% BSA. Five-fold dilutions of MerTK antibodies starting from 20 nM were added to each well and incubated for 1 hour at room temperature. The plates were washed with PBS/Tween-20 and then incubated with goat anti-human IgG Fe antibody conjugated with Horse Radish Peroxidase (HRP) for 30 minutes (mins) at room temperature. After washing, the plates were developed with TMB substrate and subsequent stop solution was added to complete the reaction. The signal from each well was read by spectrophotometer at OD 450 nm.
(§2) To evaluate the antigen binding activity, the humanized antibodies were subjected to ELISA test as described before.

[3] = target: T2, human MerTK expressed on cells; test: FACS on SK-MEL-5 cells expressing human MerTK, geometric mean
Method: (§3) To evaluate the binding properties on MerTK expressed on cells, the chimeric monoclonal antibodies were analyzed for their binding to human melanoma cell line SK-MEL-5 expressing MerTK by FACS analysis. Briefly, SK-MEL-5 cells were firstly incubated with 5-fold serially diluted chimeric mAbs starting at 20 nM at 4° C. for 30 mins. After washing by FACS buffer, the PE conjugated anti-human IgG secondary antibody was incubated with the cell-antibody complex in the wells at 4° C. for 30 mins to detect the antibodies those bound to the cells. The MFI of PE was evaluated by QuantAnalyzer 16.

[4] = target: T2, human MerTK expressed on cells; test: as above; remark: listed apart in the source
Method: as §3

[5] = target: T2, human MerTK expressed on cells; test: FACS on CHO-K1 cells overexpressing human MerTK, MFI (AF488)
human MerTK-his protein [6] = target: T1, human MerTK-his protein; test: ELISA, plate coated with human MerTK-his, OD 450nm; remark: listed apart in the source
Method: as §1, §2

human MerTK-his protein [7] = target: T1, human MerTK-his protein; test: ELISA, plate coated with human MerTK-his, anti-human IgG Fc-HRP, OD 450nm

| Binder | EC50 [3] | Top [3] | EC50 [4] | Top [4] | other results |
| --- | --- | --- | --- | --- | --- |
| B1 | 0.18 nM | 4840 Geometric Mean |  |  | Kd (human MerTK-his protein [1]): 34.9 nM; koff (human MerTK-his protein [1]): 0.000785 s⁻¹; kon (human MerTK-his protein [1]): 22500 M⁻¹ s⁻¹; EC50 (human MerTK-his protein [2]): 0.095 nM |
| B2 |  |  | 0.044 nM | 6950 Geometric Mean |  |
| B3 |  |  | 0.039 nM | 7490 Geometric Mean |  |
| B4 |  |  | 0.048 nM | 7750 Geometric Mean | Kd (human MerTK-his protein [1]): 0.392 nM; koff (human MerTK-his protein [1]): 7.78e-05 s⁻¹; kon (human MerTK-his protein [1]): 199000 M⁻¹ s⁻¹; EC50 (human MerTK-his protein [2]): 0.036 nM; EC50 [5]: 0.23 nM; EC50 (human MerTK-his protein [6]): 0.098 nM |
| B5 |  |  | 0.055 nM | 6960 Geometric Mean |  |
| B6 |  |  | 0.074 nM | 7490 Geometric Mean |  |
| B7 | 0.053 nM | 4790 Geometric Mean |  |  |  |
| B8 | 0.17 nM | 8270 Geometric Mean |  |  |  |
| B9 | 0.025 nM | 7070 Geometric Mean |  |  | EC50 (human MerTK-his protein [2]): 0.024 nM |
| B10 | 0.022 nM | 6860 Geometric Mean |  |  |  |
| B11 | 0.094 nM | 7160 Geometric Mean |  |  |  |
| B12 | 0.092 nM | 4520 Geometric Mean | 0.12 nM | 4530 Geometric Mean | EC50 (human MerTK-his protein [7]): 0.027 nM |
| B13 | 0.043 nM | 4460 Geometric Mean |  |  |  |
